Molecular target: T1, rSsp2 SM101 (Clostridium perfringens SM101 (type A), UniProt P21886 1-59)
T1 sequence: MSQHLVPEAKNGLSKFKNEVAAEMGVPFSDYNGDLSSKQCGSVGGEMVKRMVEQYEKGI
Experiment: EMSA; glutaraldehyde-fixed; preferred probe
Details: protein: recombinant; tags: His6; label: 3'-biotin; blunt

B1: GC-rich probe (69.1% GC), Label-D2/Label-R2 (dsDNA)
DNA 1: CTGGCGACTCAGAAGGGGCTCGAACCCTCGACCTCCGGCGTGACAGGCCGGCACT
DNA 2: AGTGCCGGCCTGTCACGCCGGAGGTCGAGGGTTCGAGCCCCTTCTGAGTCGCCAG
binding result: binds

Reference: publication PMC2706996
